{"source": "paper PMC5867903", "target": "mouse serum proteins (serum protein binding assay) (mouse)", "test": "ultrafiltration of serum"}
{"binder": "GQWAVGHLM (IRDye800 (800CW) on the N-terminus; 4-aminobenzoyl (Abz4) between the linker G and Q; C-terminal amide)", "note": "[800-G-Abz4-t-BBN]", "values": [{"measurement": "percent serum protein bound", "result": "> 90", "unit": "%"}]}
